Results reported in patent US11497796B2, “Agents directed against a cis RGMa/neogenin interaction or lipid rafts and use of the same in methods of treatment” (UNIVERSITY HEALTH NETWORK, priority 2013, dated 2022).

What was measured:
[1] = test system: retinal axons (axonal pathfinding); assay: In ovo electroporation and DiI tracing of axonal paths; type: in vivo, chick; details: ectopic expression in the eye at E2
Experimental: Eggs (White Leghorn) were incubated at 38° C. in a high humidity chamber. A small amount of viral solution (viral titers of 1×10^8 IU/ml) was mixed with 1/10 volume of 0.25% fast green solution (Molecular Probes) and injected in the tectum at E1.5. Eggs were further incubated until E15, when a small DiI crystal (Molecular Probes) was placed in the temporo-dorsal part of the right eye. At E17, embryos were sacrificed and the tecta fixed in 4% PFA. DiI tracing was viewed under the microscope (Olympus BX61) after cutting the tecta in half. Digital Images of the tecta were taken and processed using Photoshop (Adobe). Alternatively, plasmid constructs were electroporated into the optic vesicle to restrict expression to the eye and tracing performed as above.
To study the effect of the interaction between 4Ig and N-Raft on axonal paths in vivo, 4Ig, N-Raft, and the control NRGMa^50-99 were ectopically expressed and axonal pathfinding was examined. To ensure that the treatments affected growing axons and not their environment, when electroporation was performed, the application of the electric field was narrowed to the optic vesicle at E2, thereby restricting expression to the eye and retinal axons (FIG. 3G).

[2] = test system: Neogenin-induced apoptosis in chick tecta; assay: TUNEL assay after Neogenin electroporation; type: in vivo; details: injected into tecta after Neogenin electroporation; for number of TUNEL+ cells: without agent 432±23
Experimental: (A) HEK293 cells that stably express RGMa (FIG. 11) were transfected with empty plasmid (Ctrl) or Neogenin (Neo). Neogenin induced cell death (arrows) when compared to control. (B) Quantification of cell death in Neogenin-transfected cells that were incubated in BSA (Neo+Ctrl), 4Ig (1 μg/ml), N-Raft (1 μg/ml), Noggin (100 nM), or MβCD (10 mM). […] Data were average±SEM (n=3 independent experiments), *p<0.0001. (C) Representative images and (D) Quantification of cell death in chick E5 tecta electroporated with GFP- and a Neogenin-expression plasmid and then injected with N-RGMa50-99 (Ctrl; 1 μg/ml), 4Ig (1 μg/ml), or N-Raft (1 μg/ml) and subjected to TUNEL assay. […] Data were an average±SEM from 3 different tecta/conditions (*p<0.001). Bar, 100 μm. (E) Representative images and (F) Quantification of retinal whole mounts incubated for 4 days with control peptide (1 μg/ml), 4Ig (1 μg/ml), N-Raft (1 μg/ml), or MβCD (10 mM) and dead cells were stained with Propidium Iodide (PI). Images from 9 whole mounts per condition from 3 independent experiments were taken at the same intensities and the fluorescence measured using ImageJ. […] Bar, 500 μm. (G) Fluorescence micrographs of flat-mounted retinas depicting Fluorogold-labeled retinal ganglion cells (RGCs) in injured retinas at 14 days following axotomy. Control retinas (Ctrl) had few surviving RGCs. 4Ig, N-raft or MβCD increased cell survival. Bar, 200 μm. (H) Representations of the retinal areas selected in our analyses. […] Data were average±SEM (n=6 eyes), *p<0.01.
RGMa was expressed in the developing chick neural tube, and thus, to determine if Neogenin required lipid rafts for its pro-death function in vivo, apoptosis was examined in the neural tubes of chick embryos (E2). Specifically, a GFP-construct was electroporated with plasmids that expressed either Mock or Neogenin and apoptosis was assayed by TUNEL staining.

[3] = test system: injured spinal cord; assay: Spinal cord injury, immunostaining and quantitative analysis (NeuN, GFAP, lesion volume); type: in vivo, rat; details: for lesion volume compared to controls: rat, in vivo; for increase in number of peri-lesional neurons (NeuN) compared to controls: systemic application for 6 weeks
[4] = test system: corticospinal tract axons; assay: Spinal cord injury, anterograde axonal tracing of the corticospinal tract with BDA; type: in vivo, rat; details: for maximal distance of labeled fibers caudal to the lesion site: 4IG IV or MBCD IP; for average length of the longest axon: BDA tracing post-SCI, respective controls 18±7 and 128±118 μm
Experimental: To visualize axons from the CST, anterograde axonal tracing with BDA was performed 6 weeks after SCI following completion of the functional assessment. Animals (n=3-4) from each group were randomly selected for BDA injection. Under deep anesthesia with 2% isofluorane with 1:2 NO:O2, rats were positioned in a stereotaxic frame and craniotomy was performed bilaterally to expose the sensorimotor cortex. BDA (10%, 10,000 MW; Invitrogen (Life Technologies)) was dissolved in 0.01M PBS and injected at 6 sites in each sensorimotor cortex using the following coordinates in reference to bregma: 1) 0.5 mm posterior and 1 mm lateral, 2) 0.5 mm posterior and 2 mm lateral, 3) 1 mm posterior and 1 mm lateral, 4) 1 mm posterior and 2 mm lateral, 5) 1.5 mm posterior and 1 mm lateral, 6) 1.5 mm posterior and 2 mm lateral. At each site, 1 μl of BDA was injected 1.2 mm from the surface of the cortex. Injections were made stereotactically with the aid of an operating microscope using a motorized microinjector at a rate of 0.5 μl/min with a 10 μl Hamilton syringe and a 32-gauge needle. The needle was left in place for an additional 2 min after injection to prevent leakage and the skin was closed with 6-0 Vicryl. Animals were allowed to survive for 3 more weeks and then intracardially perfused with 4% paraformaldehyde in 0.1 M PBS. BDA tissue including a 1.5 cm segment of tissue encompassing the lesion site was excised and processed as either 20 μm cryosections on slides or free-floating 30 μm sections. Free-floating sections were collected in 24-well plates containing PBS. Sections were pre-treated with 1% H2O2 in methanol for 10 min at RT, rinsed with PBS containing 0.5% Triton X for 30 min, and incubated in avidin-biotin peroxidase complex (Vectostain Elite ABC Kit Standard, Vector Laboratories, Burlington, ON, Canada) for 1 h at RT. Slides were washed with PBS, and then incubated with fluorescent Alexa-488 goat anti-mouse secondary antibody (1:500; Invitrogen (Life Technologies)) for 1 h at RT and coverslipped with Vectashield mounting medium containing DAPI (4′, 6-diamidino-2-phenyl-indole) (Vector Laboratories, Burlington, Ontario, Canada) nuclear counterstain.

N-Raft: peptide spanning amino acids 28-73 of RGMa (SEQ ID NO:2) (SPCKILKCNSEFWAATSGSHHLGAEETPEFCTALRAYAHCTRRTAR; N-Raft - amino acids 28-73 of RGMa)
electroporations that caused aberrant axonal paths [1]: 85.7%
reduction of the number of TUNEL+ cells [2]: about 4 fold
number of TUNEL+ cells [2]: 103±8

methyl-β-cyclodextrin [MβCD, reference compound]
lesion volume compared to controls [3]: did not significantly vary
increase in number of peri-lesional neurons (NeuN) compared to controls [3]: about 2 fold
maximal distance of labeled fibers caudal to the lesion site [4]: about 4 mm
average length of the longest axon [4]: 2195±335 μm

B1: 4Ig: four immunoglobulin-like domains of Neogenin, amino acids 1 to 383 of Accession No. AAC59662 (SEQ ID NO:1) (protein, listed as Gallus gallus)
chain: RSGPRSPLTGSVVRTFTPFYFLVEPMDILSVRGASVIMNCSSYCETPPKIEWKKDGTLLNLVSDDRRQLLPDGSLLINSVVHSKHNKPDEGYYQCVATVESLGSIVSRTAKLTVAGLPRFTSQPELSSVYKGNSAILNCEVNVDLAPFVRWEQDRQPLSLDDRVFKLPSGALLIGNATDTDGGFYRCVIESGGTPKYSEEAELKILPDPEEPQSLVFVRQPSSLTKVTGQNAVFPCVAGGFPTPYVRWTKNGEELITEDSERFALRAGGSLLISDVTEEDVGTYTCIADNENETIEAQAELAVQVPPEFLKRPANIYAHESMDIVFECEVTGKPTPTVKWVKNGDVVIPSDYFKIVKEHNLQVLGLVKSDEGFYQCIAENDVGNAQAGAQLIILDLDVAIPTLPPTSLTSATNDHLAPATTGPLPTAPRDVVATLVSTRFIRLTWRTPVSDPQGDNLTYSIFYTKEGINRERVENTSRPGETQVMIQNLMPETVYVFRVVAQNKHGHGESSAPLKVATQPEVQLPGPAPNIRAYAGSPTSVTVTWETPLSGNGEIQNYKLYYMEKGQDSEQDVDVAGLSYTITGLKKYTEYSFRVVAYNKHGPGVSTQDVVVRTLSDVPSAAPQNLTLEARNSKSIMLHWQPPPAGTHSGQITGYKIRYRKVSRKSDVTESVGGTQLFQLIEGLERGTEYNFRIAAMTVNGTGPATDWVSAETFESDLDESRVPEVPSSLHVRPLVTSIVVSWTPPENQNIVVRGYAIGYGIGSPHAQTIKVDYKQRYYTIENLDPSSHYVITLKAFNNVGEGIPLYESAVTRPHSDTSEVDLFVINAPYTPVPDPSPMMPPVGVQASILSHDTIRITWADNSLPKNQKITDARYYTVRWKTNIPANTKYKTANATTLSYLVTGLKPNTLYEFSVMVTKGRRSSTWSMTAHGTTFELVPTSPPKDVTVVSKEGKPRTIIVNWQPPSEANGKITGYIIYYSTDVNAEIHDWVIEPVVGNRLTHQIQELTLDTPYYFKIQARNSKGMGPMSEAVQFRTPKAESSDKMPNDQASGSAGKGSRPVDVGPDYKPPLSGSNSPHGSPTSPLDSNMLLVIIVSVGVITIVIVVIVAVFCTRRTTSHQKKKRAACKSVNGSHKYKGNSKDVKPPDLWIHHERLELKPIDKSPDPNPIMTDTPIPRNSQDITPVDNSMDSNIHQRRNSYRGHESEDSMSTLAGRRGMRPKMMMPFDSQPPQPVISAHPIHSLDNPHHHFHSGSLASPTRSYLHHQVSPWPVGTSMSHSDRANSTESVRNTPSSDTMPASSSQPCADHQDPDSSSGAYLGSAQEEDAAQSLPTAHVRPSHPLKSFAVPAVPAAGSAYDPTLPSTPLLTQQAPSHPVHSVKTASIGTLGRTRPPMPVVVPSAPDVQETTRMLEDSESSYEPDELTKEMAHLEGLMKDLNAITTA
modifications: Neogenin - Accession No. AAC59662
increase of NeuN positive cells in cross-sections of the spinal cord ([3]; intrathecal application over 6 weeks): about 2 fold
lesion volume compared to controls [3]: did not significantly vary
increase in number of peri-lesional neurons (NeuN) compared to controls [3]: about 2 fold
electroporations that caused aberrant axonal paths [1]: 100%
maximal distance of labeled fibers caudal to the lesion site [4]: about 4 mm
average length of the longest axon [4]: 2875±228 μm
fiber length at 6 weeks compared to 4 weeks following injury ([4]; IV-injection): significantly longer at 6 weeks
reduction of the number of TUNEL+ cells [2]: about 18 fold
number of TUNEL+ cells [2]: 23±4
